# Experimental data reported in patent US20080242587A1.
# Experiments:
# [1] = target: Ang2 (produced from CHO cell) (UniProt O15123); assay: ELISA titration, Ang2 coated, anti-human Fc-HRP
# [2] = target: VEGF-A165 (produced from CHO cell) (UniProt P15692); assay: ELISA titration (0-3 nM), VEGF-A coated, anti-human Fc-HRP
# Chain of UniProt P15692 (P15692 other isoform, or with tags, fused parts or gaps limits assumed): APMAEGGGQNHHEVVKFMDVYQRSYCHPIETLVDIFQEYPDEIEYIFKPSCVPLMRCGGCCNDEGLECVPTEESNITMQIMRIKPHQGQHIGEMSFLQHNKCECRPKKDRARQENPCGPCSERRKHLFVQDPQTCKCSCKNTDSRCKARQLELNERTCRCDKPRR
# Chain of UniProt O15123 (O15123 19-496 limits assumed): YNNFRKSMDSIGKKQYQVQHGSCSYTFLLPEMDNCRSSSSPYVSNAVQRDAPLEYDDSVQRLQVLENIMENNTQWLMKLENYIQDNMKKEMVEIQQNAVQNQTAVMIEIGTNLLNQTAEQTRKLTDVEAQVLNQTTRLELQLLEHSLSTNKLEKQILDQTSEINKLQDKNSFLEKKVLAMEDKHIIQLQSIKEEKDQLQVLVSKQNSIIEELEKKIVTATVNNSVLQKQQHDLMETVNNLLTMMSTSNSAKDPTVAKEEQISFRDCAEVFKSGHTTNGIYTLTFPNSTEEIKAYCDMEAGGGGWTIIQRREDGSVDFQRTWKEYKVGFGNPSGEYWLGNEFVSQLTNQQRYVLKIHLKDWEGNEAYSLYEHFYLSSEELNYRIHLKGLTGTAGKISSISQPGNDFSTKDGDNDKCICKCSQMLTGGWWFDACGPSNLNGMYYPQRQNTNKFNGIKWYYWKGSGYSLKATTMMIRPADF
Kd [1],Kd [2],Substance
50 nM,,Tie2-Fc (Fc fusion)
,0.001 nM,VEGF-trap (Fc fusion)
